Measurements from PMC3491057, “Proliferating Cell Nuclear Antigen (PCNA) Interactions in Solution Studied by NMR” (PLoS ONE, 2012).
Entries after “also recorded” stand apart in the source; their conditions may differ. One block for each molecule: values may come before it.

How the values were obtained:
[1] = system: PCNA; parameters: method as in PMID 20460379; conditions: cited from earlier work
[2] = system: PCNA; conditions: co-immunoprecipitation, lysates from co-transfected human embryonic cells and native HeLa cells; cited from earlier work
From the text: MCL-1 is a member of the pro-survival B-cell lymphoma-leukemia-2 (Bcl-2) family that preserves mitochondrial integrity during apoptosis. It consists of an intrinsically disordered, 170 residue long N-terminal region and a C-terminal globular domain with three Bcl-2 homology (BH) regions. […] MCL-1 has a sequence that meets this minimal PIP-box motif (^221 […] ^228) at the end of the BH3 region in its globular C-terminal domain.

[3] = system: PCNA C-terminal fragment 137–261; conditions: yeast two-hybrid; cited from earlier work
From the text: MCL-1 has a sequence that meets this minimal PIP-box motif (^221 […] ^228) at the end of the BH3 region in its globular C-terminal domain.

[4] = molecular target: T1, human PCNA (Homo sapiens, UniProt P12004); assay: NMR (TROSY) examination of the interaction of PCNA with MCL-1 construct; assay type: binding; conditions: 35°C; for binding to PCNA (chemical shift or intensity changes): 50 µM 2H-15N PCNA, 220 µM MCL-1 construct (4.4 equivalents), 10 mM Tris pH 7.4, 250 mM NaCl, 1 mM EDTA, 0.5 mM DTT, 800 MHz
T1 construct: His6 tag with PreScission protease cleavage site (N, cleaved yes); made in house; host or cells: E. coli
Experimental: The human MCL-1 ΔN151−ΔC7 construct cloned in vector pET32a was expressed and purified as described. Briefly, the protein was expressed in E. coli BL21(DE3) cells with a histidine-tag and a Tev protease site at the N-terminus, and was purified by two chromatography steps: immobilized nickel ion affinity and size exclusion.
Unless indicated otherwise, the NMR spectra were recorded on a Bruker AV600 spectrometer equipped with a cryogenically-cooled triple resonance z-gradient probe at 35°C on PCNA samples with or without ligands in PBS pH 7.0. The spectra in Figures S2, S4, S7 and S8 were recorded on a Bruker AV800 spectrometer with a cryogenically-cooled triple resonance z-gradient probe on samples and buffers described in the corresponding legends. TROSY-based 3D HNCO, HN(CA)CO, HNCACB, HN(CO)CACB, and HNCA [21] were recorded for resonance assignment. Spectra were processed with TopSpin (Bruker) or with NMRPipe and analyzed using NMRView. Peak intensities were evaluated by the peak heights measured using CCPNMR [24].
We have monitored the binding of MCL-1 to PCNA by NMR using an MCL-1 construct that lacks most of the disordered N-terminal region but retains the C-terminal domain correctly folded. […] As no significant CSPs were measured, it is not possible to confirm the interaction, but a lower limit for the dissociation constant of the putative complex can be estimated. Assuming an equimolar complex, and that we should be able to detect significant changes when at least 20% of PCNA is bound to MCL-1 [42], a lower limit of the dissociation constant can be calculated. […]
Supplementary file pone.0048390.s007.tif: Figure S7 NMR examination of the interaction of PCNA with MCL-1. ^1H-^15N TROSY spectra of 50 µM uniformly labeled ^2H-^15N PCNA alone (black) or in the presence (red) of 220 µM of the ΔN151−ΔC7 fragment of human MCL-1 (1∶4.4 ratio on a PCNA monomer basis). The spectra were recorded in 10 mM Tris pH 7.4, 250 mM NaCl, 1 mM EDTA, 0.5 mM DTT at 800 MHz and 35°C. […]

T1 sequence (P12004 whole entry): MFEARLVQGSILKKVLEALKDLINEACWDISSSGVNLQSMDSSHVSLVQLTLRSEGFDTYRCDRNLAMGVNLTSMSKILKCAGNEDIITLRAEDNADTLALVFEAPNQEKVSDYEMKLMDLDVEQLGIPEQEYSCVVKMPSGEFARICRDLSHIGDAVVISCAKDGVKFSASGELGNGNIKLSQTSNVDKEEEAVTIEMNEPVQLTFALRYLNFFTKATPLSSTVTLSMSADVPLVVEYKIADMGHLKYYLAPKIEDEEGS

B1: Gadd45α: Growth arrest and DNA damage 45 alpha protein (protein, UniProt P24522 1-165, looked up)
Growth arrest and DNA …: MTLEEFSAGEQKTERMDKVGDALEEVLSKALSQRTITVGVYEAAKLLNVDPDNVVLCLLAADEDDDRDVALQIHFTLIQAFCCENDINILRVSNPGRLAELLLLETDAGPAASEGAEQPPDLHCVLVTNPHSSQWKDPALSQLICFCRESRYMDQWVPVINLPER
direct interaction with PCNA in solution [1]: extremely weak

B2: MCL-1: Myeloid cell leukemia 1 protein, literature interaction with PCNA (protein)
chain: NNTSTDGSLPSTPPPAEEEEDELYRQSLEIISRYLREQATGAKDTKPMGRSGATSRKALETLRRVGDGVQRNHETAFQGMLRKLDIKNEDDVKSLSRVMIHVFSDGVTNWGRIVTLISFGAFVAKHLKTINQESCIEPLAESITDVLVRTKRDWLVKQRGWDGFVEFFHVEDLEGGIRNVLLAFAGVAGVGA
modifications: left off: His tag, N-terminal, kept
interaction with PCNA [2]: interact with PCNA; also recorded: detected by co-immunoprecipitation | interaction with PCNA fragment 137–261 [3]: sufficient for the interaction with MCL-1

binding to PCNA (chemical shift or intensity changes) ([4]; listed as Bcl-2 domain of MCL-1): did not detect binding | Kd ([4]; assuming equimolar complex and detection at ≥20% PCNA bound, 50 µM PCNA, 220 µM MCL-1 construct, read-out: dissociation constant (lower limit)): > 840 µM
B3: ΔN151−ΔC7: MCL-1 residues 152–343 plus an N-terminal histidine-tag (protein)
chain: NNTSTDGSLPSTPPPAEEEEDELYRQSLEIISRYLREQATGAKDTKPMGRSGATSRKALETLRRVGDGVQRNHETAFQGMLRKLDIKNEDDVKSLSRVMIHVFSDGVTNWGRIVTLISFGAFVAKHLKTINQESCIEPLAESITDVLVRTKRDWLVKQRGWDGFVEFFHVEDLEGGIRNVLLAFAGVAGVGA
modifications: left off: His tag, N-terminal, kept
binding to PCNA (chemical shift or intensity changes) [4]: did not observe any indication of binding
